The values below come from paper PMC5698806 (Molecular cell, 2017).

B1: Tpz1^475–508-Poz1 complex (complex, S. pombe)
chain 1: NSEACEMCRLGLPHGSFFELLRDWKKIEEFRNKS
chain 2: MNEKIRSQSVLNTLETFFIKENHYDMQREESSIVNACLRYLGYSKSMCHEKMPIFMDIAFIEYCFNLSLDPSSFQNLPITQTQPDSQQILWEYSLISNALERLENIELERQNCMREDGLVKYTNELLLNKETLNNEALKLYSCAKAGICRWMAFHFLEQEPIDHINFTKFLQDWGSHNEKEMEALQRLSKHKIRKRLIYVSQHKKKMPWSKFNSVLSRYIQCTKLQLEVFCDYDFKQREIVKMLTSNIN
B3: Biotin-SUMO-tagged Rap1^446-512 (domain or fragment, S. pombe, UniProt Q96TL7 446-512, looked up)
chain: EKTLRETSFRSLDDMSLRKSNSDNIFVKPGEDLEIPLLSDYSDSENISEKSSDDEEAFEKQVTSSYS
modifications: also: SUMO tag fused, biotin on Avi tag
B7: Poz1 (full length) (natural protein, S. pombe, UniProt O13852 1-249, looked up)
chain: MNEKIRSQSVLNTLETFFIKENHYDMQREESSIVNACLRYLGYSKSMCHEKMPIFMDIAFIEYCFNLSLDPSSFQNLPITQTQPDSQQILWEYSLISNALERLENIELERQNCMREDGLVKYTNELLLNKETLNNEALKLYSCAKAGICRWMAFHFLEQEPIDHINFTKFLQDWGSHNEKEMEALQRLSKHKIRKRLIYVSQHKKKMPWSKFNSVLSRYIQCTKLQLEVFCDYDFKQREIVKMLTSNIN

For one assay, the target named is T1, TIN2 (human, UniProt Q9BSI4 1-451).
T1 sequence (looked up): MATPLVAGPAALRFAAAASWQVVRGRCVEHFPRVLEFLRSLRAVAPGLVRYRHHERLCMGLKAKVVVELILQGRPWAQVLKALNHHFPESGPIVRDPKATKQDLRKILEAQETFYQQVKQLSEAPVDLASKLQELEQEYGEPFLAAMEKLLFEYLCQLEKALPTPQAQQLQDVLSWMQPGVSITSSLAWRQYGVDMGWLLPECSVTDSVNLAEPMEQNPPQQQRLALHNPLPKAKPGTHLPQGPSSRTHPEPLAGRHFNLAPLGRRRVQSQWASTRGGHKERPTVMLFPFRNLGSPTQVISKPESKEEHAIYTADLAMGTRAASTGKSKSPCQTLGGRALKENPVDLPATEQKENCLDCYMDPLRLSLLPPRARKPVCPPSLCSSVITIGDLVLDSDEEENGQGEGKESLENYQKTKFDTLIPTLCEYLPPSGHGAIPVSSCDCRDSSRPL
In words: ITC.

Assay [1] has as its target B3. In words: BLI.
For assay [2], the target named is T2, Tpz1 (full length, in S. pombe) (S. pombe, UniProt O14246 1-508).
T2 sequence (looked up): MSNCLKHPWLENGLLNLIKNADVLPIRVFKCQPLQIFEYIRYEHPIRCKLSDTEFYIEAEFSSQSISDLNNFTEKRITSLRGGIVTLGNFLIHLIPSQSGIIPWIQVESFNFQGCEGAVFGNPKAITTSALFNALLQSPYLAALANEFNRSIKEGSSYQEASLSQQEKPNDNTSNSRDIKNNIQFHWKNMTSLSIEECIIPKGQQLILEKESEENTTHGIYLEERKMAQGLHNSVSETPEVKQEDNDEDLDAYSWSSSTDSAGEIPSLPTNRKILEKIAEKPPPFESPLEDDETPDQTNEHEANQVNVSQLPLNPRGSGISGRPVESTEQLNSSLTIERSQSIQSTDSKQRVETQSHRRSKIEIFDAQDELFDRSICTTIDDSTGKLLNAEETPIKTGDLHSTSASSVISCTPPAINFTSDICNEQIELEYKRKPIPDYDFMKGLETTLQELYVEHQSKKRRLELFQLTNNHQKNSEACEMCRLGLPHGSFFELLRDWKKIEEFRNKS
In words: co-IP.

The target in another assay is T3, Poz1^L14R-Tpz1^475–508 (S. pombe, UniProt O14246 475-508; O13852 1-249, L14R).
T3 sequence (looked up) 1: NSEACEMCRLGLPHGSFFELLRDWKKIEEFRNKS
T3 sequence (looked up) 2: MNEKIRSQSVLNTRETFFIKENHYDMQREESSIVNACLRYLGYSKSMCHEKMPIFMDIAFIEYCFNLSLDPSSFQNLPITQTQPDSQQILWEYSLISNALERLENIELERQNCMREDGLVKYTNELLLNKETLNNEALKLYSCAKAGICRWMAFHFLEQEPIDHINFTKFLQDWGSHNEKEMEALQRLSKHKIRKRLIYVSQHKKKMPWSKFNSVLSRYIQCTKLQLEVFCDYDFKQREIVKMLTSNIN
In words: BLI.

The target in a further assay is T4, Poz1ΔN (Poz1^29-249) (S. pombe, UniProt O13852 29-249).
T4 sequence (looked up): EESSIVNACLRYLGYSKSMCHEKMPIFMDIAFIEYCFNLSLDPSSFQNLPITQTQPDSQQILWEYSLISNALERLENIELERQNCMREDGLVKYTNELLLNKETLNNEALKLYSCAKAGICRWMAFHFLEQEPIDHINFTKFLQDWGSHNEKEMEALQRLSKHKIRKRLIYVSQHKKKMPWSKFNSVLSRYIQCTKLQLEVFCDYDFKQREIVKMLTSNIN
In words: BLI.

In a further assay the target is T5, Tpz1-Poz1ΔN complex (S. pombe, UniProt O14246 475-508; O13852 29-249).
T5 sequence (looked up) 1: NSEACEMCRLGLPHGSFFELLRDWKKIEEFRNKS
T5 sequence (looked up) 2: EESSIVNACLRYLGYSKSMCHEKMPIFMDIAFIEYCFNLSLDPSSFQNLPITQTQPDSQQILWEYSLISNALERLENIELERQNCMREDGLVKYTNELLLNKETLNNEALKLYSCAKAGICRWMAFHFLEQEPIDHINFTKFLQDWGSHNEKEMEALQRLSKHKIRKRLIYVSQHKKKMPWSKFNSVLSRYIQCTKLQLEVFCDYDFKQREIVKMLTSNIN
In words: ITC.

Assay [3] addresses B7. In words: ITC.
Assay [4] concerns the target B1. In words: ITC.
In a further assay the target is T6, Rap1^467–496 (S. pombe, UniProt Q96TL7 467-496).
T6 chain (looked up): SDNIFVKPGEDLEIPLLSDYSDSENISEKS
In words: crystal structure.

The target in assay [5] is B7. In words: pull-down.
The target of assay [6] is B1. In words: pull-down.
The target of assay [7] is B7. In words: crystal structure.

Several values for one entry are separate records, joined by “and”; a condition that tells them apart may be missing. Equal values may be shown once.

The molecule APADGEGGSELQPKNKRMTISRLVLEEDSQSTEPSAGLNSSQE (domain or fragment, human, UniProt Q15554 382-424, looked up) [TRF2^382-424] gave a Kd in the assay with TIN2 of 3.11 µM.

Turning to B1, the “koff, fold slower than with free Poz1” value in assay [1] is ~60 fold.

B2: Poz1-L14R (in S. pombe) (natural protein, UniProt O13852 1-249, looked up)
chain: MNEKIRSQSVLNTRETFFIKENHYDMQREESSIVNACLRYLGYSKSMCHEKMPIFMDIAFIEYCFNLSLDPSSFQNLPITQTQPDSQQILWEYSLISNALERLENIELERQNCMREDGLVKYTNELLLNKETLNNEALKLYSCAKAGICRWMAFHFLEQEPIDHINFTKFLQDWGSHNEKEMEALQRLSKHKIRKRLIYVSQHKKKMPWSKFNSVLSRYIQCTKLQLEVFCDYDFKQREIVKMLTSNIN
On to B2, for which the “fold decrease of the co-IP against wild-type cells” value in [2] is ~3 fold.

Turning to B3, the binding result in the assay with Poz1^L14R-Tpz1^475–508 and with Poz1ΔN (Poz1^29-249) was “binds” in each case.

B4: Rap1^446-523 (domain or fragment, S. pombe, UniProt Q96TL7 446-523, looked up)
chain: EKTLRETSFRSLDDMSLRKSNSDNIFVKPGEDLEIPLLSDYSDSENISEKSSDDEEAFEKQVTSSYSSPIKVKSQGKS
Regarding B4, the Kd in the assay with Tpz1-Poz1ΔN complex is 4.58 µM; with Poz1 (full length) [3], 5.62 µM and 4.95 µM; in assay [4], 0.48 µM.

B5: Poz1 of the improved crystal construct Tpz1^475–508-Poz1-Rap1^467–496 (residues 73–86 replaced by GGA, 117–126 by GGGSA) (natural protein, S. pombe)
chain: MNEKIRSQSVLNTLETFFIKENHYDMQREESSIVNACLRYLGYSKSMCHEKMPIFMDIAFIEYCFNLSLDPSGGAQQILWEYSLISNALERLENIELERQNCMREGGGSALLNKETLNNEALKLYSCAKAGICRWMAFHFLEQEPIDHINFTKFLQDWGSHNEKEMEALQRLSKHKIRKRLIYVSQHKKKMPWSKFNSVLSRYIQCTKLQLEVFCDYDFKQREIVKMLTSNIN
As for B5, the binding result in the assay with Rap1^467–496 is recorded as “binds”.

B6: GST-Rap1^446-512 (domain or fragment, S. pombe, UniProt Q96TL7 446-512, looked up)
chain: EKTLRETSFRSLDDMSLRKSNSDNIFVKPGEDLEIPLLSDYSDSENISEKSSDDEEAFEKQVTSSYS
With B6, the binding result (with Poz1 (full length) [5]; in assay [6]) was “binds” each time.

For B7, in assay [1], the “kon, fold against Tpz1-bound Poz1” value is ~5 fold.

B8: GST-Tpz1^406-508 (domain or fragment, S. pombe, UniProt O14246 406-508, looked up)
chain: SSVISCTPPAINFTSDICNEQIELEYKRKPIPDYDFMKGLETTLQELYVEHQSKKRRLELFQLTNNHQKNSEACEMCRLGLPHGSFFELLRDWKKIEEFRNKS
With B8, the binding result with Poz1 (full length) [5] is recorded as “binds”.

For IFVKPGEDLEIPLLSDYSDSENISE (domain or fragment, S. pombe, UniProt Q96TL7 470-494, looked up) [Rap1^470-494], the binding result with Poz1 (full length) [7] is given as “binds”.

B9: Poz1ΔN (in S. pombe) (domain or fragment, UniProt O13852 29-249, looked up)
chain: EESSIVNACLRYLGYSKSMCHEKMPIFMDIAFIEYCFNLSLDPSSFQNLPITQTQPDSQQILWEYSLISNALERLENIELERQNCMREDGLVKYTNELLLNKETLNNEALKLYSCAKAGICRWMAFHFLEQEPIDHINFTKFLQDWGSHNEKEMEALQRLSKHKIRKRLIYVSQHKKKMPWSKFNSVLSRYIQCTKLQLEVFCDYDFKQREIVKMLTSNIN
On to B9, for which, in assay [2], the “fold decrease of the co-IP against wild-type cells” value was ~3 fold.
